US20240075137A1 (COMPUGEN, published 2024)
Read-outs that look alike come from different tables or passages of the source.

T1: human PVRIG on cells (human, UniProt Q6DKI7 1-326)
T1 construct: whole, on cells; over-expressed on HEK cells or endogenous on Jurkat and CD8 T cells; also called hPVRIG; HEK hPVRIG cells
T1 sequence (looked up): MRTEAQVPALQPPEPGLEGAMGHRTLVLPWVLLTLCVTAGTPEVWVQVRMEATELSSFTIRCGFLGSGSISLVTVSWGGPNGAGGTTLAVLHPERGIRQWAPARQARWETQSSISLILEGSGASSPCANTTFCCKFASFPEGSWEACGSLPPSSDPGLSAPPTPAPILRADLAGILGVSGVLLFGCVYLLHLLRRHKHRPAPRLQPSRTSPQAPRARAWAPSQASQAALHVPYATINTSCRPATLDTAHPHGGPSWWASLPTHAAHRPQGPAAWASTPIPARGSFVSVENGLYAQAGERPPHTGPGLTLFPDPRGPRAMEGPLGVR

T2: cynomolgus PVRIG on cells (cynomolgus, UniProt A0A2K5WVV8 41-322)
T2 construct: whole, on cells; also called cPVRIG; expi cPVRIG cells
T2 sequence: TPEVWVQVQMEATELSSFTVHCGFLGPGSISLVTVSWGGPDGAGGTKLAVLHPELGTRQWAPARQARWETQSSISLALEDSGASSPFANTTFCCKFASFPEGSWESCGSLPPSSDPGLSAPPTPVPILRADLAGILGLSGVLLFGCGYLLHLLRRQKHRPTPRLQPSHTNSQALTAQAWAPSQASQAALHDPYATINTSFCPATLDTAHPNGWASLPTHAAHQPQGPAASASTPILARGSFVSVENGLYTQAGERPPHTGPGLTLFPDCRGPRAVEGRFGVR

T3: PVRIG (FACS-based competition assay of FIGS. 7 and 15) (Homo sapiens, UniProt Q6DKI7)
T3 construct: made because the format of the assay is only described in U.S. Ser. No. 15/048,967; also called human PVRIG
T3 sequence (receptor, looked up): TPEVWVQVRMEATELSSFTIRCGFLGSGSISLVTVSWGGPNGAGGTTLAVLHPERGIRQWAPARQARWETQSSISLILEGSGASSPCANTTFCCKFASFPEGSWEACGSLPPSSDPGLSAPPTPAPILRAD


Columns and labels:
human PVRIG on cells [1] = biological target: T1, human PVRIG on cells; experiment: FACS, human PBMC, CD8+ T cells, 10ug/ml
[2] = biological target: T2, cynomolgus PVRIG on cells; experiment: FACS, expi cPVRIG over expi parental cells, 3.3ug/ml
[3] = biological target: T2, cynomolgus PVRIG on cells; experiment: as above; remark: listed apart in the source
[4] = biological target: T3, PVRIG (FACS-based competition assay of …); experiment: FACS-based competition assay of PVRIG blocking; format and competitor not given
human PVRIG on cells [5] = biological target: T1, human PVRIG on cells; experiment: FACS, HEK hPVRIG cells (HEK OE)
[6] = biological target: T3, PVRIG (FACS-based competition assay of …); experiment: FACS-based competition assay of PVRIG blocking; format and competitor not given; remark: listed apart in the source
human PVRIG on cells [7] = biological target: T1, human PVRIG on cells; experiment: FACS, human PBMC, CD56 int. NK cells, 10ug/ml
human PVRIG on cells [8] = biological target: T1, human PVRIG on cells; experiment: FACS, human PBMC, CD8+ T cells, 10ug/ml; remark: listed apart in the source
human PVRIG on cells [9] = biological target: T1, human PVRIG on cells; experiment: FACS, HEK hPVRIG over HEK parental cells, 3.3ug/ml
human PVRIG on cells [10] = biological target: T1, human PVRIG on cells; experiment: FACS, human PBMC, CD56 int. NK cells, 10ug/ml; remark: listed apart in the source
human PVRIG on cells [11] = biological target: T1, human PVRIG on cells; experiment: FACS, Jurkat cells, relative to control, 3.3ug/ml
human PVRIG on cells [12] = biological target: T1, human PVRIG on cells; experiment: FACS, HEK hPVRIG over HEK parental cells, 3.3ug/ml; remark: listed apart in the source
[13] = biological target: T2, cynomolgus PVRIG on cells; experiment: FACS, expi cPVRIG over expi parental cells, 3.3ug/ml; remark: listed apart in the source
human PVRIG on cells [14] = biological target: T1, human PVRIG on cells; experiment: FACS, human PBMC, CD8+ T cells, 10ug/ml; remark: listed apart in the source
human PVRIG on cells [15] = biological target: T1, human PVRIG on cells; experiment: FACS, human PBMC, CD56 int. NK cells, 10ug/ml; remark: listed apart in the source
human PVRIG on cells [16] = biological target: T1, human PVRIG on cells; experiment: FACS, Jurkat cells, relative to control, 3.3ug/ml; remark: listed apart in the source
human PVRIG on cells [17] = biological target: T1, human PVRIG on cells; experiment: FACS, HEK hPVRIG cells (HEK OE); remark: listed apart in the source
[18] = biological target: T2, cynomolgus PVRIG on cells; experiment: FACS, cyno PBMC, NK cells, 10ug/ml
[19] = biological target: T2, cynomolgus PVRIG on cells; experiment: FACS, cyno PBMC, CD8+ T cells, 10ug/ml
[20] = biological target: T2, cynomolgus PVRIG on cells; experiment: FACS, cyno PBMC, NK cells, 10ug/ml; remark: listed apart in the source
[21] = biological target: T2, cynomolgus PVRIG on cells; experiment: FACS, cyno PBMC, CD8+ T cells, 10ug/ml; remark: listed apart in the source

Row | Binder | gMFIr Human CD8+ T cells (human PVRIG on cells [1]) | gMFIr Expi cyno OE/par [2] | gMFIr Expi cyno OE/par [3] | IC50 [4] | EC50 (human PVRIG on cells [5]) | IC50 [6] | gMFIr Human CD56 int. NK (human PVRIG on cells [7]) | gMFIr Human CD8+ T cells (human PVRIG on cells [8]) | gMFIr HEK OE/par (human PVRIG on cells [9]) | gMFIr Human CD56 int. NK (human PVRIG on cells [10]) | gMFIr Jurkat (human PVRIG on cells [11]) | other results
1 | CHA.7.510 (antibody, V domains shown) VH: QVTLKESGPGILQPSQTLSLTCSFSGFSLNTSGTGVGWIRQPSGKGLEWLTHIWWNDNKFYNTFLKSRLTISKETSNNQVFLKIASVDTADAATYYCARMAYGNLWFVNWGQGTLVAVST VL: DIVLTQSPASLAVSLGQRASISCRASRSVTISGYSYMYWYQQKPGQPPRLLFYLASNLASGVPARFSGSGSGTDFTLNIHPVEEEDAAIYYCQHSRELPYTFGGGTKLEIK | 2.73 | 38.2 | 38.2 | 55 nM | 92.8 nM | 55 nM | 3.13 | 2.73 | 16.3 | 3.13 | 4.19 | –
2 | CHA.7.522 (antibody, V domains shown) VH: QVQLQQPGSELVRPGTSVKLSCKASGYTFTSYWVHWVRQRHGQGLEWIGNVYPGSGSTNYDEKFKSKGTLTVDTSSSTAYMHLSSLTSEDSAVYYCTRGVLRFPLDYWGQGTTLTVSS VL: DIVMTQAAPSVPVTPGESVSISCRSSKSLLHSNGNTYLYWFLQRPGQSPHLLIYRMSNLASGVPDRFSGSGSGTAFTLRISRVEAEDVGVYYCMQHLEYPLTFGAGTKLELK | 1.9 | 27.2 | 27.2 | 50.5 nM | 91.4 nM | 50.5 nM | 2.06 | 1.9 | 10.1 | 2.06 | 2.99 | –
3 | CHA.7.544 (antibody, V domains shown) VH: QVQLKESGPGLVAPSQSLSITCTVSGFSLTSYAITWVRQPPGKGLEWLGVIWPGGGTNYNSALKSRLSISKDNSKSHLFLKMNSLQTDDTARYYCVRSYDGYLDWYFDVWGTGTTVTVSS VL: NIVMTQSPKSMSMSVGERVTLSCKASENVGTYVSWYQQKPDQSPKLLIYGASNRYTGVPDRFTGSGSATDFTLIISSVQAEDLSDYHCGQSYSYPYTFGGGTKLEII | 2.54 | 61.1 | – | – | – | – | 2.36 | – | – | – | – | gMFIr HEK OE/par (human PVRIG on cells [12]): 42.6; gMFIr Expi cyno OE/par [13]: 61.1; gMFIr Human CD8+ T cells (human PVRIG on cells [14]): 2.54; gMFIr Human CD56 int. NK (human PVRIG on cells [15]): 2.36; gMFIr Jurkat (human PVRIG on cells [16]): 5.68; EC50 (human PVRIG on cells [17]): 0.76 nM
4 | CHA.7.516 (antibody, V domains shown) VH: QVQLQQSGPELVRPGVSVKISCKVSGYTFTDYVMHWVKQSHAKSLEWIGIISPYSGNTNYNQNFKGKATMTVDKSSSTAYMALARLTSEDSAIYYCAREGDLPMFAYWGQGTLVTVSA VL: QIVLTQSPTIMSASPGEKVTMTCSASSSVSYIYWYQQNPGSSPRLLIYDTSILASGVPFRFSGSGSGTSYSLTISRMEAEDAATYYCQQWTSYPLTFGSGTKLELK | 4.09 | 60 | 60 | 33.1 nM | 0.79 nM | 33.1 nM | 4.22 | 4.09 | 37.9 | 4.22 | 5.73 | gMFIr Cyno NK cells [18]: 1.76; gMFIr Cyno CD8+ T cells [19]: 2.09
5 | CHA.7.524 (antibody, V domains shown) VH: QVQLQQSGPEVVRPGVSVKISCKGSGYKFPDYVMHWVKQSHAKSLEWIGIISIYSGNTNYNQKFKGKATMTVDKSSSTAYMELARLTSEDSAIYYCAREGDLPMFAYWGQGTLVTVSA VL: QIVLTQSPAIMSASPGEKVTMTCNASSSVSYMYWYQQKPISSPRLLIYDTSNLASGVPVRFSGSGSGTSYSLTIGRMEAEDAATYYCQQWSSYPLTFGAGTKVEVK | 6.12 | 66.3 | – | 30.2 nM | 0.46 nM | 30.2 nM | 5.5 | – | 48.3 | – | 7.87 | gMFIr Cyno NK cells [18]: 1.78; gMFIr Cyno NK cells [20]: 1.78; gMFIr Cyno CD8+ T cells [19]: 2.02; gMFIr Expi cyno OE/par [13]: 66.3; gMFIr Human CD8+ T cells (human PVRIG on cells [14]): 6.12; gMFIr Human CD56 int. NK (human PVRIG on cells [15]): 5.5; gMFIr Cyno CD8+ T cells [21]: 2.02
6 | CHA.7.514 (antibody, V domains shown) VH: EVQLRQSGADLVKPGASVKLSCTASGFNIKDTYIDWVKQRPEQGLDWIGRIDPANGNTKYDPKFQGKATIITDTSSNTAYLQLSNLTSEDTAVYYCARYGSYPYFDYWGRGTTLAVSS VL: SIVMTQTPKFLLISAGDRVTITCKASQSVRNDVAWYQQKPGQSPKLLMYYASNRYTGVPDRFTGSGYGTDFTFTISTVQAEDLAVYFCQQDYSSPPTFGGGTKLEIK | 5.15 | 65.2 | 65.2 | 38.9 nM | 5.31 nM | 38.9 nM | 4.16 | 5.15 | 49.8 | 4.16 | 7.67 | –
7 | CHA.7.512 (antibody, V domains shown) VH: QIQLVQSGPELKKPRETVKISCKASGYTFTDYSMHWVKQAPGKGLKWMGWINTETGEPTYADDFKGRFAFSLEASASSAYLQINILKDEDTATYFCARSRGGYYEDYYALDYWGQGTSVTVSS VL: DIQMTQSPASLSASVGESVTITCRASGNIHYYLAWYQQKQGKSPQLLVYNAKNLADGVPSRFSGSGSGTQFSLKINSLQPEDFGSYYCQHFWISPPTFGGGTKLEIK | 1.15 | 8.96 | 8.96 | 840 nM | 53 nM | 840 nM | 1.3 | 1.15 | 5.12 | 1.3 | 1.47 | –
